According to patent publication US20100304465:

System: delta-plasminogen
Sequence (chain, as listed by the source mutant): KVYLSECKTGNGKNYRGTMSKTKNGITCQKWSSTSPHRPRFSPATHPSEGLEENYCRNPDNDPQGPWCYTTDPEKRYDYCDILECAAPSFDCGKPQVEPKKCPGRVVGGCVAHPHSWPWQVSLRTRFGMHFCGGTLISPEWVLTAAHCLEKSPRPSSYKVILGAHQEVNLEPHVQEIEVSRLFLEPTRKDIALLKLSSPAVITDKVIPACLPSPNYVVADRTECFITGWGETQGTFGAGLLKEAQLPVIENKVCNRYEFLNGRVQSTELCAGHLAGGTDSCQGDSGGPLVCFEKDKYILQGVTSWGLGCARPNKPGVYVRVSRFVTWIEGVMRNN

With urokinase the “conversion of one-chain delta-plasminogen into two-chain delta-plasmin (reduced SDS-PAGE)” value was “delta-plasminogen indeed can be activated by all three plasminogen activators”.
